Assay results from publication PMC10710061.

B1: ZnF domain of Arabidopsis thaliana SPL5, residues 60 to 127 (domain or fragment)
chain: SRLCQVDRCTVNLTEAKQYYRRHRVCEVHAKASAATVAGVRQRFCQQCSRFHELPEFDEAKRSCRRRL

Assays:
[1] = biological target: ZnF domain of Arabidopsis thaliana SPL5, residues 60 to 127 (Arabidopsis thaliana) (UniProt Q9S758); test: ITC; 200 μM SAP05 from the syringe into 20 μM SPL5^ZnF in the cell; 25 °C, 20 mM HEPES pH 7.5, 150 mM NaCl; one-site binding model
[2] = biological target: SAP05 H58A T60W (purified, for ITC) (Aster Yellows phytoplasma strain Witches Broom (AYWB)); test: ITC; SPL5^ZnF from the syringe (250 μM for wild-type SAP05, 200 μM for the SAP05–Rpn10^vWA complex or SAP05 mutants) into 20 μM partner in the cell; 25 °C, 20 mM HEPES pH 7.5, 150 mM NaCl; one-site binding model
[3] = biological target: SAP05 D66E (purified, for ITC) (Aster Yellows phytoplasma strain Witches Broom (AYWB)); test: as above
[4] = biological target: SAP05 of Aster Yellows phytoplasma strain Witches Broom (AYWB), residues 33 to 135 (Aster Yellows phytoplasma strain Witches Broom (AYWB)); test: as above
[5] = biological target: SAP05–Rpn10^vWA complex (Aster Yellows phytoplasma strain Witches Broom (AYWB) | Arabidopsis thaliana) (UniProt P55034); test: as above

Molecule | Kd [1] | stoichiometry N [1] | Kd [2] | Kd [3] | Kd [4] | Kd [5] | stoichiometry N [5]
SAP05 of Aster Yellows phytoplasma strain Witches Broom (AYWB), residues 33 to 135 (natural protein) | 450 nM | 1 |  |  |  |  | 
B1 |  |  | 3600 nM | 17700 nM | 520 nM | 650 nM | 1
